Reference: PMC13482807

Molecular target: Microtubule star (Mts) L186A (Drosophila) (UniProt P23696)
Test: co-IP; S2 cells transfected with the tagged constructs; lysis in 50 mM Tris pH 7.5, 150 mM NaCl, 1% Triton X-100, 10% glycerol, 1 mM EDTA with phosphatase and protease inhibitors; FLAG-tagged proteins on anti-FLAG M2 agarose 1-2 h at 4 °C, eluted with 3x FLAG peptide; immunoblot (Figures EV3G,H, EV5C-E, 5B-D)

Chain of UniProt P23696 (P23696 whole entry L186A): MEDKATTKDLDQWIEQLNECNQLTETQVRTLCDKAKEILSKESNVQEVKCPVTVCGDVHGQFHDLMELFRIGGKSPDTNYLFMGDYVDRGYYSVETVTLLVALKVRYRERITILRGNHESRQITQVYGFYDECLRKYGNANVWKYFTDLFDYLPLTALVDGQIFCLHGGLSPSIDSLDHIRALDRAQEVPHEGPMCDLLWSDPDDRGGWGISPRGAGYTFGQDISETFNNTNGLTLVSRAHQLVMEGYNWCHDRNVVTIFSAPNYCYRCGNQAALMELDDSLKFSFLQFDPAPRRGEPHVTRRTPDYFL

Connector of kinase to AP-1 (Cka), PP2A B''' regulatory subunit (natural protein)
reduction of binding relative to Mts^WT: 50%
